In the RNAGym collection of RNA variant scans (doi:10.1093/nar/gkz1192):

B1: CPEB3 Ribozyme (parent)
chain: UAACAGGGGGCCACAGCAGAAGCGUUCACGUCGCAGCCCCUGUCAGAUUCUGGUGAAUCUGCGAAUUCUGCUGUAUAUCUC

Variants of: B1
Assay: self-cleavage, relative activity (ratio to wild type); higher = more cleavage; in vitro, sequencing
Method in brief: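 Relative activity compares each variant's cleaved/total read fraction with that of the unmutated ribozyme. To get these fractions, barcoded CPEB3 ribozyme libraries from rounds of error-prone PCR were transcribed with T7 RNA polymerase for 5 hours at 37°C and then given 15 min of DNase I treatment before EDTA was added. The RNAs were reverse transcribed with template switching and sequenced on Illumina, and DNA sequencing linked barcodes to variants. A minimum of 5 reads applied, and three batches were averaged.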
With C11U U54A the self-cleavage was 0.45.
Work on C11U U54C yielded a self-cleavage of 0.43.
Work on C11U U60C yielded a self-cleavage of 0.14.
Work on C11U U66C yielded a self-cleavage of 0.2.
Variant C11U U67A has a self-cleavage of 0.36.
C11U U67C gave a self-cleavage of 0.18.
Variant C11U U67G has a self-cleavage of 0.18.
In the case of C11U U69A, the self-cleavage is reported as 0.24.
In the case of C11U U72A, the self-cleavage is reported as 0.42.
For C11U U72C, the self-cleavage was 0.64.
Work on C11U U72G yielded a self-cleavage of 0.37.
Variant C11U U74A has a self-cleavage of 0.96.
C11U U74C gave a self-cleavage of 0.83.
Variant C11U U76C has a self-cleavage of 0.43.
For C11U U78A, the self-cleavage was 0.53.
Variant C11U U78C has a self-cleavage of 0.33.
Work on C11U U80A yielded a self-cleavage of 0.31.
With C11U U80C the self-cleavage was 0.45.
For C12A, the self-cleavage was 1.15.
Variant C12A A13C has a self-cleavage of 1.23.
In the case of C12A A13G, the self-cleavage is reported as 0.89.
C12A A13U showed a self-cleavage of 1.25.
Work on C12A A15C yielded a self-cleavage of 1.17.
In the case of C12A A15G, the self-cleavage is reported as 1.19.
C12A A18U gave a self-cleavage of 0.48.
For C12A A20G, the self-cleavage was 1.17.
C12A A20U showed a self-cleavage of 0.32.
Variant C12A A21G has a self-cleavage of 0.73.
C12A A28C gave a self-cleavage of 0.57.
C12A A28G showed a self-cleavage of 0.59.
With C12A A28U the self-cleavage was 0.92.
In the case of C12A A35G, the self-cleavage is reported as 0.9.
C12A A35U gave a self-cleavage of 1.27.
Work on C12A A45G yielded a self-cleavage of 1.04.
Work on C12A A45U yielded a self-cleavage of 0.49.
For C12A A47G, the self-cleavage was 1.17.
Variant C12A A56G has a self-cleavage of 0.87.
Work on C12A A56U yielded a self-cleavage of 0.81.
C12A A57G showed a self-cleavage of 1.06.
In the case of C12A A64G, the self-cleavage is reported as 1.21.
Work on C12A A64U yielded a self-cleavage of 0.56.
In the case of C12A A65C, the self-cleavage is reported as 0.32.
Variant C12A A65G has a self-cleavage of 0.44.
C12A C17G showed a self-cleavage of 0.16.
C12A C29U gave a self-cleavage of 0.7.
Work on C12A C40A yielded a self-cleavage of 0.3.
C12A C40U showed a self-cleavage of 0.69.
Variant C12A C62A has a self-cleavage of 0.71.
Work on C12A C62G yielded a self-cleavage of 0.24.
C12A C68G gave a self-cleavage of 0.52.
In the case of C12A C79A, the self-cleavage is reported as 1.28.
For C12A G19A, the self-cleavage was 0.43.
C12A G24U showed a self-cleavage of 0.33.
C12A G30U gave a self-cleavage of 0.26.
With C12A G46U the self-cleavage was 0.38.
C12A G52A showed a self-cleavage of 1.23.
Variant C12A G55C has a self-cleavage of 0.78.
Variant C12A U25C has a self-cleavage of 0.42.
In the case of C12A U26A, the self-cleavage is reported as 1.08.
Work on C12A U31A yielded a self-cleavage of 0.65.
C12A U31C showed a self-cleavage of 1.14.
C12A U41C showed a self-cleavage of 0.99.
With C12A U41G the self-cleavage was 0.36.
For C12A U43A, the self-cleavage was 0.99.
C12A U48G gave a self-cleavage of 0.2.
C12A U49C gave a self-cleavage of 0.63.
Variant C12A U51A has a self-cleavage of 1.06.
With C12A U54A the self-cleavage was 1.1.
Work on C12A U54C yielded a self-cleavage of 1.12.
For C12A U58C, the self-cleavage was 0.54.
C12A U60C gave a self-cleavage of 0.3.
C12A U67A gave a self-cleavage of 0.69.
In the case of C12A U67C, the self-cleavage is reported as 0.33.
With C12A U69A the self-cleavage was 0.7.
For C12A U69C, the self-cleavage was 0.72.
In the case of C12A U72C, the self-cleavage is reported as 1.19.
Work on C12A U74G yielded a self-cleavage of 1.28.
Work on C12A U78A yielded a self-cleavage of 1.21.
C12A U78C showed a self-cleavage of 1.04.
Variant C12A U80C has a self-cleavage of 1.23.
In the case of C12G, the self-cleavage is reported as 0.59.
Work on C12G A13C yielded a self-cleavage of 0.72.
C12G A13G showed a self-cleavage of 0.71.
With C12G A13U the self-cleavage was 1.14.
In the case of C12G A15G, the self-cleavage is reported as 0.1.
In the case of C12G A18G, the self-cleavage is reported as 0.17.
In the case of C12G A18U, the self-cleavage is reported as 0.35.
With C12G A20G the self-cleavage was 0.44.
Work on C12G A28U yielded a self-cleavage of 0.26.
For C12G A45C, the self-cleavage was 0.12.
C12G A57G showed a self-cleavage of 0.41.
Variant C12G A64U has a self-cleavage of 0.13.
C12G A65G gave a self-cleavage of 0.18.
Variant C12G A65U has a self-cleavage of 0.1.
C12G C17G gave a self-cleavage of 0.27.
For C12G C27A, the self-cleavage was 0.09.
For C12G C27U, the self-cleavage was 0.18.
Variant C12G C29G has a self-cleavage of 0.24.
C12G C38A gave a self-cleavage of 0.36.
C12G C40A gave a self-cleavage of 0.11.
Variant C12G C50G has a self-cleavage of 0.28.
Work on C12G G24A yielded a self-cleavage of 0.19.
In the case of C12G G30A, the self-cleavage is reported as 0.29.
Variant C12G G52A has a self-cleavage of 0.49.
In the case of C12G U25C, the self-cleavage is reported as 0.14.
C12G U26C showed a self-cleavage of 0.24.
For C12G U31C, the self-cleavage was 0.92.
Work on C12G U41C yielded a self-cleavage of 1.09.
Work on C12G U41G yielded a self-cleavage of 0.14.
C12G U43C gave a self-cleavage of 0.38.
For C12G U48G, the self-cleavage was 0.35.
Work on C12G U49C yielded a self-cleavage of 0.16.
Variant C12G U54C has a self-cleavage of 0.51.
With C12G U66C the self-cleavage was 0.24.
C12G U67A showed a self-cleavage of 0.23.
With C12G U67C the self-cleavage was 0.08.
Variant C12G U67G has a self-cleavage of 0.12.
C12G U69A gave a self-cleavage of 0.3.
C12G U69C showed a self-cleavage of 0.11.
In the case of C12G U72A, the self-cleavage is reported as 0.29.
Variant C12G U76C has a self-cleavage of 0.66.
C12G U78C gave a self-cleavage of 0.71.
For C12U, the self-cleavage was 1.25.
With C12U A13C the self-cleavage was 1.16.
C12U A13G showed a self-cleavage of 0.74.
C12U A13U showed a self-cleavage of 1.15.
For C12U A15G, the self-cleavage was 0.86.
C12U A15U gave a self-cleavage of 1.23.
C12U A18G showed a self-cleavage of 0.95.
C12U A18U showed a self-cleavage of 0.62.
In the case of C12U A20G, the self-cleavage is reported as 1.19.
In the case of C12U A20U, the self-cleavage is reported as 0.38.
In the case of C12U A21G, the self-cleavage is reported as 0.86.
Work on C12U A21U yielded a self-cleavage of 1.
With C12U A28C the self-cleavage was 0.94.
For C12U A28G, the self-cleavage was 0.89.
In the case of C12U A28U, the self-cleavage is reported as 1.12.
In the case of C12U A35C, the self-cleavage is reported as 0.85.
C12U A35G gave a self-cleavage of 1.15.
C12U A35U gave a self-cleavage of 1.06.
C12U A45C showed a self-cleavage of 0.64.
In the case of C12U A45G, the self-cleavage is reported as 1.25.
With C12U A45U the self-cleavage was 0.83.
Variant C12U A47C has a self-cleavage of 0.76.
C12U A47G gave a self-cleavage of 1.17.
C12U A47U showed a self-cleavage of 0.83.
With C12U A56G the self-cleavage was 1.13.
C12U A57G gave a self-cleavage of 1.26.
Variant C12U A64G has a self-cleavage of 1.41.
With C12U A64U the self-cleavage was 0.83.
C12U A65G gave a self-cleavage of 1.07.
Variant C12U A65U has a self-cleavage of 0.42.
For C12U A75G, the self-cleavage was 1.3.
C12U A75U showed a self-cleavage of 1.28.
In the case of C12U A77C, the self-cleavage is reported as 1.03.
With C12U A77G the self-cleavage was 1.19.
C12U C14U showed a self-cleavage of 1.25.
Variant C12U C17U has a self-cleavage of 1.13.
C12U C23U showed a self-cleavage of 0.52.
Work on C12U C27A yielded a self-cleavage of 0.46.
In the case of C12U C29U, the self-cleavage is reported as 0.96.
C12U C34A showed a self-cleavage of 0.68.
C12U C39U showed a self-cleavage of 1.26.
Variant C12U C40U has a self-cleavage of 1.12.
C12U C44A gave a self-cleavage of 0.94.
With C12U C71U the self-cleavage was 0.58.
C12U C79A showed a self-cleavage of 1.19.
